Consider 22 molecules from US20240218057A1 (ROCKEFELLER UNIVERSITY, published 2024).

The experiment deals with T1, SARS-COV-2 RBD (SARS-COV-2, UniProt P0DTC2 319-539).
T1 construct: also called WT RBD
The experiment in a line: ELISA, RBD coated on plate. (In general: In an ELISA, binding on a coated surface is turned into a signal by an enzyme label.)

Positions count from the first letter of the chain named.

B1: C910 (antibody, V domains shown)
VH: QVQLVQSGAAVKKPGASVKVSCKASGYTFTSYDINWVRQAPGQGLEWMGWMNPNSGNTGFAQRFQGRATLSRDTSITTAYMELTTLRSEDTAVYYCARGRANYNSKFLLDNWGQGTLVTVSS
VL: QSALTQPASVSGSPGQSITISCTGTSSDVGSYNLVSWYQQHPGTAPKLMIYEGSKRPSGVSDRFSGYKSGNTASLTISGLQADDEADYYCCSFAGSTTRYVFGTGTRVTVL
Regarding B1, it took 2.47 ng/mL to reach a half-maximal effect (EC50).

B2: C1012 (antibody, V domains shown)
VH: QVQLVQSGAEVKKPGSSVKVSCKASGGTVNNYAINWVRQAPGQGLEWMGGIVPIFGTPNYAQKFQGRVTITADESTSTAYMELSSLRSEDTAVYYCAKVSLTLPIAAAPRFWFDSWGQGTLVTVSS
VL: EIVMTQSPATLSVSPGERATLSCRASQSVSSHLAWYQQKPGQAPRLLIYGASTRATGIPARFSGSGSGTEFTLTISSLQSEDFAVYYCQQYHNWPPALTFGGGTKVEIK
Take B2: the response was half-maximal at 3.29 ng/mL (EC50).

B3: C1013 (antibody, V domains shown)
VH: QVQLVQSGVEVKKPGSSVKVSCKASGGTFTDYAFSWVRQAPGQGLEWMGGIVPIFATPDYAEKFRGRVTITADESTSTAYMELSTLKSEDTAVYYCARASLTLPIRAAPRFWFDAWGQGTLVTVSS
VL: B2 VL with S28G, S31T, N93K
As to B3, the midpoint of the response, the EC50, lay at 8.92 ng/mL.

B4: C1022 (antibody, V domains shown)
VH: QVQLVQSGAEVKTPGASVKVSCQASGDTFTSQYLHWVRQAPGQGLEWMGIINPTAGSTTYAQKFQGRVTMTRDTSTSTVYMELRSLRSEDMAVYYCARGGFIPMVRGFIDHWGQGTLVTVSS
VL: QSALTQPASVSGSPGQSITISCTGTSSDVGGYNYVSWYQQHPGKAPKLMIYDVSNRPSGVSTRFSGSKSGNTASLTISGLQAEDEADYYCSSPTSSNTHVFGTGTKVTVL
Consider B4, for which the EC50 – broadly, the concentration that produces a half-maximal response – came to 1.66 ng/mL. Compared with the last molecule, the EC50 is about 5.4-fold lower.

B5: C903 (antibody, V domains shown)
VH: EVQLVESGGGLIQPGGSLRLSCAASGFIVSRNYMSWVRQAPGKGLEWVSIIYSGGSTFYADSVKGRFTISRDNSKNTVYLQMNSLRAEDTAVYYCARDYGDFYFDYWGQGTLVTVSS
VL: EIVLTQSPGTLSLSPGERATLSCRASQSVSSSYLAWYQQKPGQAPRLLIFDVSSRATGIPDRFSGSGSGTDFTLTISRLEPEDFAVYYCQQYGSSPRTFGQGTKVEIK
Molecule B5 registered a half-maximal effective concentration (EC50) of 2.54 ng/mL.

B6: C906 (antibody, V domains shown)
VH: EVQLVESGGGLIKPGRSLRLSCTASGFTFGDYAMTWFRQAPGKGLEWVGFIRSKAYGGTTGYAASVKYRFTISRDDSKSIVYLQMDSLKTEDTAVYYCTRWDGWSQHDYWGQGTLVTVSS
VL: DIVMTQSPLSLSVTPGEPASISCRSSQSLLHSNGINYFDWYLQKPGQSPQLLIYLGSNRASGVPDRFSGSGSGTDFTLKISRVEAEDVGVYYCMQVLQIPYTFGQGTKLEI
Consider B6, for which the EC50 is 1.07 ng/mL.

B7: C1010 (antibody, V domains shown)
VH: QVQLVESGGGVVQPGRSLRLSCAASGFTFSSYAMHWVRQAPGKGLEWVAVISYDGSNKYYADSVKGRFTISRDNSKNTLYLQMNSLRAEDTAVYYCAKKGQPYCGGDCYFYYFDYWGQGTLVTVSS
VL: DIQMTQSPSSLSASLGDRVTITCQASQDISNYLNWYQQKPGKAPKLLIYDASNLETGVPSRFSGSGSGTDFTFTISSLQPEDIATYYCQQYDNLPPITFGQGTRLEIK
For B7, the half-maximal effective concentration (EC50) is 2.45 ng/mL.

B8: C1011 (antibody, V domains shown)
VH: QVQLVESGGGVVQPGRSLRLSCAVSGFTFSHYAMHWVRQAPGKGLEWVAVISYDGADKYYADSVRGRFTIARDNSKNTLFLQMSSLRPEDTAVYYCAKKGQPYCGGDCHFYYLDYWGQGTLVTVSS
VL: B7 VL with L15V, Y32H, P80A
For the molecule B8, the concentration for a half-maximal effect (EC50) worked out at 1.49 ng/mL.

B9: C908 (antibody, V domains shown)
VH: EVQLVQSGAEVKKPGESLKISCKASGYSFTIYWIGWVRQMPGKGLEWMGIIYPGESETRYSPSFQGQVTISADKSISTAYLQWRSLKASDTAMYYCARGGPPGGVKLELTDYWGQGTLVTVSS
VL: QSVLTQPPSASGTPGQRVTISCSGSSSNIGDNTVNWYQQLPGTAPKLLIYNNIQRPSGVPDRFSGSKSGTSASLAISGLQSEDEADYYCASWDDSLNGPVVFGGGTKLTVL
B9: the 50% effective concentration (EC50) is 1.27 ng/mL. This EC50 and that of the molecule before are within 1.5-fold of each other.

B10: C1020 (antibody, V domains shown)
VH: QVQLVQSGAEVKKPGASVKISCKASGYSFSNYYIHWVRQAPGQGLEWMGIINPSGNSISYAQKFQGRVTMTGDTSTSTVYMELSSLRSEDTAVYYCARSVFPVPAAGGCDYWGQGTLVTVSS
VL: DIQMTQSPSSLSASVGDRVTITCRASQSITTSLNWYQQKPGKAPKLLIYSASTLESGVPSRFSGSGSGTDFTLTISSLQPEDFATYYCQQTYRAPPYTFGQGTKLEIK
Regarding B10, the midpoint of the response, the EC50, lay at 2.06 ng/mL.

B11: C1021 (antibody, V domains shown)
VH: QVQLVQSGAELKKPGASVKVSCKASGYTFSTYYIHWVRQAPGQGLEWMGIINPEAGSTSYAQKFQGRVTMTTDTSTSTVYMELISLRSQDTAIYYCARDAVGVPAINSLEYWGQGTLVTVSS
VL: EIVLTQSPATLSLSPGERATLSCRASQSISSYLAWYQQKPGQAPRLLIYDASNRATDISARFSGSGSGTDFTLTISSLEPEDFAVYYCQHRSNWPPSFTFGGGTKVEIK
B11 came in with a concentration for a half-maximal effect (EC50) of 2.53 ng/mL.

B12: C905 (antibody, V domains shown)
VH: QVQLQESGPGLVTPSQTLSLTCSVSGGSIHSRDFYWGWIRQHPGKGLEWIGHIYYTGNTYYNPSLKSRVTISADTSKNQFSLKLSSVTAADTAVYYCARATVVITLHWFDPWGQGTLVTVSS
VL: NFMLTQPHSVSESPGKTVTISCTGSGGSIASNYVQWYQQRPGSAPTTVIYEDNERPSGVPDRFSGSIDSSSNSASLTISGVKTEDEADYFCQSYDVGNPVIFGGGTKLTVL
Molecule B12 came in with a concentration giving a half-maximal response (EC50) of 3.06 ng/mL.

B13: C907 (antibody, V domains shown)
VH: QVQLQESGPGLVKPSETLSLTCTVSGGSITSYYWTWIRQSPGKGLEWIGYIYYIGSTNYNPSLKSRLTISLATSKNQFSLRLNSVTAADTAVYYCASYYNDTSGYSYGLDVWGQGTTVTVSS
VL: DIQMTQSPSSLSAFVGDRVTITCRAGQSISSYLHWYQQKPGKAPKLLIYATSTLQSGVPSRFSGRGSGTDFTLTISGLQPEDFATYYCQQSYSTPQTFGQGTKVEIK
B13 returned an EC50 of 3.71 ng/mL.

B14: C1016 (antibody, V domains shown)
VH: QVQLQESGPGLVKPSGTLSLTCAVSGGPISSNHWWSWVRQPPGKGLEWIGEVYRNGNTNYHPSLKSRVTMSIDNSKNQFSLSLTSVTAADTAVYYCARGGDLAMGPEYLDFWGQGTLVTVSS
VL: QSALTQPASVSGSPGQSITISCTGTSSDVGANNYVSWYQQHPGKAPKLMIYDVINRPSGVSDRFSGSKSGNTASLTISGLQAEDEADYYCSSFSTSSTLLFGGGTKLTVL
B14 showed an EC50 of 2.16 ng/mL.

B15: C1023 (antibody, V domains shown)
VH: QVQLVQSGAEMKKPGASVKISCKASGDTFTTNYFHWVRQAPGQGLEWMGIINPSAGSTTYAQRFQGRVTMTGDSSTNTVYLELRSLRSEDTAMYFCAKGSYIPAMRSSFDPWGQGTLVTVSS
VL: EIVLTQSPGTLSLSPGERATLSCRASQSVSHRYLAWYQQKPGQAPRLLIDGASNRATGIPDRFSGSGSGTDFTLTISRLEPEDFGVYYCQQYGSSPPFTFGQGTKLEIK
Regarding B15, the half-maximal effective concentration (EC50) is 1.13 ng/mL.

B16: C911 (antibody, V domains shown)
VH: QVQLVESGGGVVQPGGSLRLSCAASAFTFSSYAMHWIRQSPGKGLEWVAVISSDGSSKFYADSVKGRFTISRDNSKNTLYLQMNSLSAEDTAVYYCARDLENVLIEVALQDWGQGTLVTVSS
VL: DIQMTQSPSSLSASVGDRVTITCRASQSINSYLNWYQQKPGKAPKLLIYAASSLHSGVPSRFSGSGSGTDFTLTISSLQPEDFATYYCQQSYTTLALTFGGGTKVEIK
In turn, B16 returned an EC50 of 2.36 ng/mL.

B17: C904 (antibody, V domains shown)
VH: QVQLQQWGAGLLKPSETLSLTCAVNGGSLSLYYWSWIRQSPGKGLEWIGEINHFGGSDYKPSLKSRVSISVDTSTNQFSLKLSSVTAADTAVYYCARKPLLHSNISPGAFDIWGQGTMVTVSS
VL: EIVLTQSPGTLSLSPGERATLSCRASQSVAGSYLAWYQQKPGQAPRLLIYGASSRATGVPDRISGSGSGTDFTLTISRLEPEDFAVYYCQQYTNTPRTFGGGTKVEI
B17 returned a 50% effective concentration (EC50) of 3.31 ng/mL.

B18: C909 (antibody, V domains shown)
VH: QVQLVQSGAEVKKPGASVKVSCRASGYTFPNYDLNWVRQATGQGLEWMGWMNPNSGNTGYAQKFQGRITMTRITSISTAYMELSSLRSEDTAVYYCARGRANWNSNFLLDSWGQGTLVTVSS
VL: QSALTQPASVSGSPGQSITISCTGTSSDVGGYNLVSWYQQYPGNVPKLMIYEDAKRPSGVSNRFSGSKSANTASLTISGLQAEDEADYYCCSYAGSSTRYVFGTGTKVTVL
Molecule B18 showed an EC50 of 3.24 ng/mL.

B19: C1019 (antibody, V domains shown)
VH: QVQLVESGGGVVQPGTPLRLSCAASGFTFSSYAMHWVRQAPGKGLEWVAMISYDGGNKYYADSVKGRFTISRDNSKNTLFLQMNSLRGEDTAVYYCARSFSIRIGHKDNWGQGTLVTVSS
VL: NFMLTQPHSVSESPGKTVTISCTGSSGSIANNYVQWYQQRPGSAPTPVIYEDDQRPSGVPDRFSGSIDSSSNSASLSISGLKTEDEADYYCQSYDSTNFWVFGGGTKLTVL
Regarding B19, the EC50 amounted to 2.8 ng/mL.

B20: C1024 (antibody, V domains shown)
VH: QVQLVESGGGVVQPGRSLRLSCAASGFTFSDYAMHWVRQAPGKGLEWVAMISYDGNSQYYADSVKGRFTISRDNSKNTLYLQMNILRPEDTAVYYCARTFSIRIGHHDYWGQGTLVTVSS
VL: B19 VL with N31S, Q35H, P47T, Y50F, D53N, S77T, T97S, N98S
In the case of B20, the EC50 came to 2.37 ng/mL.

B21: C1018 (antibody, V domains shown)
VH: QVQLVESGGGVVQPGRSLRLLCAASGFTFNTHGMHWVRQAPGKGLEWVAVIWFDGSNKYYADSVKGRFTISRDNSTNTLYLQMNSLRAEDTAVYYCARVYGGLPYYYAIDVWGQGTTVTVSS
VL: QSVLTQPPSVSGAPGQRVTISCAGSSSNIGAGYGVHWSQQLPGRPPKLLIYGDSNRPSGVPDRFSGSNSGTSASLAITGLQAEDEAVYYCQSYDRSLRAWVFGGGTKLSVL
B21 displayed a 50% effective concentration (EC50) of 3.09 ng/mL.

B22: C1014 (antibody, V domains shown)
VH: QVQLQESGPGLVRPSQTLSLTCTVSGGSIGSGAYWSWIRQHPAKGLEWIGYVYYSGSTFYNPSLETRVSISVDISKDQFSLELTSVTVADTAVYYCAREKIEVVSIEMRPHYYGIDVWGQGTTVTVSS
VL: EIVMTQSPATLSVSPGERATLSCRASQSISSNLAWYQQKPGQPPRLLIYGASTRATGIPARFSGSGSGTEFTLTISSLQSEDIAVYYCQHYNNWPPWTFGQGTKVDIK
In turn, B22 displayed a 50% effective concentration (EC50) of 2.95 ng/mL.
